Where two headings read alike, the source gives them in different places.

Test [1] concerns the target T1, SARS-CoV-2 WT RBD (SARS-CoV-2 WT (Wuhan-Hu-1), UniProt P0DTC2). The test is described as follows: ELISA. To be noted: both partners purified.
For a further test, the target named is spike BA.1-6P (SARS-CoV-2, Omicron BA.1, strain).
The target in test [2] is T1, SARS-CoV-2 WT RBD.
Test [3] deals with recombinant FL spike WT-2P (SARS-CoV-2 WT (Wuhan-Hu-1), stabilised, biotin (EZ-Link Sulfo-NHS-Biotin) in the BLI experiments).
In test [4] the target is recombinant FL spike WT-6P (SARS-CoV-2 WT (Wuhan-Hu-1), UniProt P0DTC2, stabilised, biotin (EZ-Link Sulfo-NHS-Biotin) in the BLI experiments).

B1: S728-1157 IgG (antibody, V domains shown)
VH: EVQLVESGGGLVQPGGSLRLSCAASGLLVSRNYMNWVRQAPGKGLEWVSIIYSGGSTFYADSVEGRFTISRDESKNTLYLQMNSLRTDDTAVYYCARDLSDYGGIDCWGQGTLVTVSS
VL: YELTQPLSVSMALGQTARISCGGDNVGSQNVHWYQQRPGQAPVLVIYRDSNRPSGIPERFSGSKSGNTATLTISRAQAGDEADYYCQVWDSSTVAFGGGTKLTVL
notes: copies: 2 + 2
In the case of B1, the binding result in the test with SARS-CoV-2 WT RBD [1] was “binds”.

B2: REGN10933 (Regeneron) (antibody, V domains shown)
VH: QVQLVESGGGLVKPGGSLRLSCAASGFTFSDYYMSWIRQAPGKGLEWVSYITYSGSTIYYADSVKGRFTISRDNAKSSLYLQMNSLRAEDTAVYYCARDRGTTMVPFDYWGQGTLVTVSS
VL: DIQMTQSPSSLSASVGDRVTITCQASQDITNYLNWYQQKPGKAPKLLIYAASNLETGVPSRFSGSGSGTDFTFTISGLQPEDIATYYCQQYDNLPLTFGGGTKVEIK
notes: source: HEK293T, transiently cotransfected, purified (protein A-agarose beads); copies: 2 + 2
On to B2, for which, in the test with SARS-CoV-2 WT RBD [1], the binding result is given as “binds”.

B3: S626-161 (antibody, V domains shown)
VH: QLQLQESGPGLVKPSEALSLTCTVSGGSISTSNYYWGWIRQPPGKGLEWIGSIYYRGGTHYNPSLKTRVTISVDTSKNQFSLKLSSVTAADTAVYYCARHTYFYDIVGAAVWEPFDIWGQGTMVTVSS
VL: not shown
In the case of B3, the binding result (with spike BA.1-6P; in the test with SARS-CoV-2 WT RBD [2]; in test [3]; in test [4]) was “binds” in each case.

B4: LY-CoV555 (Eli Lilly) (antibody, V domains shown)
VH: QVQLVQSGAEVKKPGSSVKVSCKASGGTFSNYAISWVRQAPGQGLEWMGRIIPILGIANYAQKFQGRVTITADKSTSTAYMELSSLRSEDTAVYYCARGYYEARHYYYYYAMDVWGQGTAVTVSS
VL: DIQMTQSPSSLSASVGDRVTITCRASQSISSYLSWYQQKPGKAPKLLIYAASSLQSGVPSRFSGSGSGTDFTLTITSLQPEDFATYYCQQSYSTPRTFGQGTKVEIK
On to B4, for which the binding result with SARS-CoV-2 WT RBD [1] is given as “binds”.

B5: S451-1140 (antibody, V domains shown)
VH: EVQLVESGGGLVPPGGSLRLSCAASGFIFSNYAMTWVRQAPGKGLEWVSAISGGGGSTDYADSVKGRFTISRDNSKNTLYLQMNSLRAEDTAVYYCAKDLFGSGWSLFDNWGQGTLVTVS
VL: not shown
As to B5, the binding result (with spike BA.1-6P; in the test with SARS-CoV-2 WT RBD [2]; in test [3]; in test [4]) was “binds” each time.
